T1: hCD96-humanIgG1 fusion protein (human) (UniProt P40200)
T1 sequence: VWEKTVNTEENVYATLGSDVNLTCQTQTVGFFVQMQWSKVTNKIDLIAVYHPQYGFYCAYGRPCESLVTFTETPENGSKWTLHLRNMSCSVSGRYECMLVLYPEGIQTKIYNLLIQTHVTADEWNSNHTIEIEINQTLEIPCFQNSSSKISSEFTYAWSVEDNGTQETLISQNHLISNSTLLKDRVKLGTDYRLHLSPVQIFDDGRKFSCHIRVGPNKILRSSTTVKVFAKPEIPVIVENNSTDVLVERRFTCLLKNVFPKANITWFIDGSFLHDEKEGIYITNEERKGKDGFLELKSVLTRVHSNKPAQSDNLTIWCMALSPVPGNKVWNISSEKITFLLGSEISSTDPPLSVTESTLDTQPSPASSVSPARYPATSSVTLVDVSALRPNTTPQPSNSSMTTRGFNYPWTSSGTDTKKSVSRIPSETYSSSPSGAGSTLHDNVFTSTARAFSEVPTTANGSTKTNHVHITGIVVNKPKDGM


Target: T1, hCD96-humanIgG1 fusion protein (human)
Assay: SPR (Biacore), hCD96-hFc captured by anti-huFc

Binder	Kd [nM]	koff [s⁻¹]	kon [M⁻¹ s⁻¹]
BL006-19-352G9-352K8 (antibody, V domains shown) VH: QVQLQQPGAELVKPGASVKLSCKASGYTFTSYWMHWVKQRPGQGLEWIGMIHPNGDITDYNEKFKSKATLAVDESSSTAFMQLNSLTSEDSAFYYCARASYYGSLYWGQGTTLTVSS VL: DIVMTQSQKFMSTSVGDRVSVTCKASQNVGIAVAWYQKKPGQSPKTLIYSASTRYTGVPDRFTGSGSGTDFTLTINDVQSEDLADYFCQQYGSSPLTFGAGTKLELK	23.4	0.000796	34100
BL006-9-15G1-15K5 (antibody, V domains shown) VH: QAYLQQSGAELVRPGASVKMSCKASGYTFTSYNMHWVKQTPRQGLEWIGAVIPGNGDSFYNQKFKGKATLTVDKSSSTAYMQLSSLTSEDSAVYFCGRSSSGCIAYWGQGTLVTVSA VL: DIVLTQSPASLAVSLGQRATISCRVSGSVDYDGDSYMNWYQQKPGQPPKLLIYAASNLESGIPARFSGSGSETDFTLNIHPVEEEDAATYYCLQSNEAPWTFGGGTKVEIK	4.6	0.00275	598000
BL006-19-55G10-55K7 (antibody, V domains shown) VH: QVQLQQSGAEVVRPGTSVKMSCKAAGYTFTDNWIDWVKQRPGHGLDWIGNIFPGGNYTNYNEKFKGKATLTADTSSSTAYMQLINLTSEDSAIYYCVRAVADSQFAYWGQGTLVTVSA VL: QIVLTQSPAIMSVSPGEKVTMTCSASSRVTYMYWYQQKPGSSPKPWIYRTSNLASGVPVRFSGSGSGTSYSLTISSMEAEDAATYYCQQWSSNPLTFGAGTKLELK	3.45	0.000501	145000
BL006-19-363G1-363K1 (antibody, V domains shown) VH: QVQLQQPGAELVKPGASVKLSCKASGYTFTTYWIHWVKQRPGQGLEWIGMILPNSGTTIYNEKFRSQATLTVDKSSSAAYMQLSRLTSEDSAVYYCAVTGTNFDYWGQGTTLTVSS VL: QIVLTQSPAIMSASPGEKVTMTCSASSSVSYMYWYQQKPGSSPKPWIYRTSNLASGVPVRFSGSGFGTSYSLTISNMEAEDAATYYCQQWSSNPLTFGTGTKLELK	3.5	0.000585	167000
BL006-11-5G1-5K3 (antibody, V domains shown) VH: EVQLVESGGGLVKPGGSLKLSCAASGFTFSSYAMSWVRQTPEKRLEWVAAINTDGASTYFPATVKDRFTISRDNAKNTLYLQMSSLRSEDTALYYCARPLEPGSWFAYWGQGTLVTVSA VL: DVLMTQTPLSLPVSLGDQASISCRSSQSIVHSNGNTYLEWYLQKPGQSPKVLIYKVSNRFSGVPDRISGSGSGTDFTLKISRVEAGDLGVYYCFQGSHVPYTFGGGTKLEIK	3.47	0.000579	167000
BL006-4-31G1-31K3 (antibody, V domains shown) VH: QVQLQQSGPELVKPGASVKISCKTSGFTFTDYYINWVKQRPGQGLEWIGWIFPGSGSSFYSEIFKGQATLTVDKSSSTAYMLLSSLTSEDSAVYFCARRNYYGYGAYAMDYWGQGTSVTVSS VL: DIQMNQSPSSLSASLGDTITITCRASQSINFWLSWYQQKPGNIPKLLIYKASNLHTGVPSRFSGSGSGTDFTLTISSLQPEDIATYYCLQGQSYPLTFGGGTKLEIK	13.2	0.0007	53100
BL006-19-21G1-21K1 (antibody, V domains shown) VH: QVQLQQPGAELVKPGASVKMSCKASGYTFISYWITWVKQRPGQGLEWIGDIYPGSGHTNYNEKFKSKATLTVDTSSSTAYMQLSSLTSEDSAVYYCARPTVEAMDYWGQGTSVTVSS VL: QIVLTQSPAIMSASPGEKVTMTCSASSSVNYMHWYQQRSGTSPKRWIYDTSKLASGVPARFSGSGSGTSYSLTISSMEAEDAATYYCQQWSNNPLTFGAGTKLELK	6.75	0.000988	146000
BL006-19-370G9-370K16 (antibody, V domains shown) VH: QVQLQQSGAELGRPGTSVKMSCKAAGYTFTNYWIGWVKQRPGHGLEWIGDIYPGGGYTNYNEKFKGKATLTADTSSSTAYIQLSSLTSEDSAIYYCARSGYYDGSPLAMDYWGQGTSVTVS VL: QIVLTQSPTIMSASPGEKVTMTCSASSSVSYMHWYQQKSGTSPKRWIYDTSKLASGVPARFSGSGSGTSYSLTISSMEAEDAATYYCQQWSSNPPTFGSGTKLEIK	42.3	0.00193	45500

Now those with a lower Kd, led by results:

Kd [nM]	koff [s⁻¹]	kon [M⁻¹ s⁻¹]	Binder
2.97	0.000444	150000	BL006-19-190G4-190K6 (antibody, V domains shown) VH: EVQLVESGGGLVQPGGSLKLSCAASGFTFSNYGMSWVRQTPDKRLELVATINSNGGSTYYPDSVKGRFTISRDNAKNTLYLQMSSLKSEDTAMYYCTKRGAWYFDVWGTGTTVTVSS VL: DIQMTQSSSSFSVSLGDRVTITCKASEDIYNRLAWYQQKPGNAPRLLISSATSLETGVSSRFSGSGSGKDYTLSITSLQTEDVATYYCQQYWTTPTWTFGGGTKLEIK
2.83	0.000363	128000	BL006-4-52G6-52K7 (antibody, V domains shown) VH: QVQLQQPGAELVKPGASVKLSCKASGYSFTSYWMHWVKQRPGQGLEWIGQIDPSDSYTNYNQKFKGKATLTVDKSSSTAYMQLSSLTSEDSAVYYCASGNYGPYLGNYFDYWGQGTTLTVPS VL: DIVMSQSPSSLVVSVGEKVTMSCKSSQSLLHSTNQKNYLAWYQQKPGQSPKLLIYWASTRESGVPDRFTGSGSGTDFTLTISSVKAEDLVVYYCQQYYNYPYTFGGGTKLEIK
0.825	0.00057	691000	BL006-4-20G5-20K5 (antibody, V domains shown) VH: EVQLAESGGDLVTPGGSLKLSCAASGFTFSSYGMSWVRQTPDKRLEWVATITHGGSYIYYPDSVKGRFTLSRDNAKNTLYLQMSSLKSEDTAMYYCIRHADYARFAYWGQGTLVTVSA VL: DIQMTQTTSSLSASLGDRVTISCRPSQDISNYLNWYQQKPDGTVKLLIYYTSRLHSGVPSRFSGSGSGTDYSLTISNLEQEDIATYFCQQGNTLPWTFGGGTKLEIK
0.707	9.88e-05	140000	BL006-19-134G5-134K4 (antibody, V domains shown) VH: QVQLQQPGAELVKPGASVKLSCKASDYTFTTYWMHWVKQRPGQGLEWIGMIHPNSDTTLYNEKFRSQATLTVDKSSSTAYIQLSRLTSEDSAVYYCVVTGTNFDYWGQGTTLAVSS VL: QVVLTQSPAIMSASPGEKVTMTCSATSSVSYMYWYQQKPGSSPKPWIYRTSNLASGVPVRFSGSGSGTSYSLTISSMEAEDAATYYCQQWSSNPLTFGGGTKLELK
0.45	0.000296	656000	BL006-19-183G3-183K4 (antibody, V domains shown) VH: QVTLNESGPGILQPSQTLSLTCSFSGFSLTTYGMGVGWIRQPSGKSLEWLANIWWTEDKYYNSALKSRLTISTDTSHNQVFLKISSVDTEDTATYYCAQMGPEVYSAMDYWGQGTSVTVSS VL: DIVMTPSQKFMSTTVGDRVSITCKASQNVGTAVAWYQQKPGHSPKLLIYSASNRNTGVPDRFTGSGSGTDFTLTISNMQSEDLADYFCHQYSRYPWTFGGGTKLEIK
0.364	0.000153	420000	BL006-4-61G5-61K1 (antibody, V domains shown) VH: EVKLEESGGGLVQPGGSMKLSCVASGFTFSNYWMNWVRQSPEKGLEWVAQIRFKSDNYATHYAESVKGRFTISRDDSKSSVYLQMHNLRAEDTGIYYCTEFAYWGQGTLVTVSA VL: QILLTQSPAIMSASPGEKVTMTCSASSRVNSRFLNWYQQKSGVSPKLWIYGTSNLASGVPARFSGSGSGTSYSLTISSVEAEDVATYYCQQYQSDPPITFGAGTRLELI
0.351	0.000192	548000	BL006-8-3G9-3K4 (antibody, V domains shown) VH: QVQLQQSGAELVRPGASVKLSCKASGYRFTDYEMEWVKQTPVHGLEWIGAIDPETGGTAYNQKFKGKATVTADKSSRTAYMELRSLTSEDSAVYYCTREGDGSYGAYWGQGTLVTVSA VL: DVMMTQTPLSLPVSLGDQASISCRSSQSIVYSNGNTYLEWYLQKPGQSPKLLMYKVSNRFSGVPDRFSGSGSGTDFTLKISRVEAEDLGVYYCFQGSHAPWTFGGGTKLEIK
0.198	0.00016	810000	BL006-9-1G1-1K1 (antibody, V domains shown) VH: EVKLVESGGGLVKPGGSLKLSCAASGFTFSSYAMSWVRQTPERGLEWVAAIQSNGGSTFYPDTVKDRFTISRDNAKNTLYLQMSSLRSEDTALYYCVRGPFDYWGQGTTLTVSS VL: QIVLTQSPAIMSASPGQKVTIPCSASSSVNYIHWFQQKLGSSPKLWIYDTSKLTPGVPARFSGSGSGTSYSLTISSMEAEDAASYFCHQWRSYPPTFGGGTKLEIK
0.182	0.000163	896000	BL006-19-29G5-29K1 (antibody, V domains shown) VH: QVTLKESGPGILQSSQTLSLTCSFSGFSLSTFGMGVSWIRKPSGKGLEWLAHIFWDDDKRYNPSLKSRLTISKDTSSNQVFLMINSMDIADTATYYCTRGSNWFAYWGQGTLVTVSA VL: DIVLTQSPASLAVSLGQRATISCRASESVDSYGNSFMHWYQQKPGQPPKLLIYRASNLESGIPARFSGSGSRTDFTLTINPVEADDVATYYCQQSNEDPLTFGAGTKLELK

— US20230192845A1
